These results are taken from US20120225437A1 (UNIVERSITY OF LEICESTER, published 2012).

Assay [1] has as its target T1, Rat MBL-A (mannan-binding lectin A) (rat, UniProt P19999 18-238).
T1 construct: mature; It was immobilised on the SPR chip by amine coupling
Description: SPR, MBL immobilised, CUB2 at 20, 10, 5 and 2.5 µM, 1:1 model. How it is done: (§1) Data were fitted to a model in which there is a single Ca²⁺ site.
(§2) MBL (0.025 mg/ml) was immobilized onto the surface of a GLM sensor chip (˜10,000 response units) at pH 4.5, using amine-coupling chemistry. […] For inhibition assays, MBL was immobilized on to a CM-5 sensor chip (14,000 response units) and binding was measured on a Biacore® 2000 (GE Healthcare) in 20 mM Tris/HCl pH 7.4, containing 140 mM NaCl, 5 mM Ca²⁺, and 0.005% SP-20. […] Changes in response units caused by differences in sample composition were subtracted from all data. To account for changes in ionic strength of the buffer due to the inhibitor, binding was measured in the presence of equivalent concentrations of NaCl.

In assay [2] the target is T1, Rat MBL-A (mannan-binding lectin A). The experiment in a line: SPR, MBL immobilised, CUB2 injected, 5 mM Ca2+. The protocol: as §1, §2

B1: CUB2 domain of rat MASP-1/-3 (residues E165-A277 of the mature polypeptide, isoform 1) (other)
chain: CSGNLFTQRTGTITSPDYPNPYPKSSECSYTIDLEEGFMVTLQFEDIFDIEDHPEVPCPYDYIKIKAGSKVWGPFCGEKSPEPISTQSHSIQILFRSDNSGENRGWRLSYRA
notes: also called MASP-1 CUB2; rat MASP-1 CUB2
The term koff denotes the first-order rate constant of dissociation. The low end stands for a long-lived complex, the high end for a short-lived complex. The kon is the second-order rate constant of association. Low readings indicate slower complex formation, high ones faster complex formation. By Kd is commonly meant the concentration at which binding is half-saturated. High values mean a looser complex, low ones a tighter complex. As for B1, in assay [1], the koff is 0.0035 s⁻¹ and the kon was determined as 131 M⁻¹ s⁻¹. The Kd in assay [2] turned out to be 27 µM.
